The values that follow are results of earlier work, collected in US11419917B2, “Treatment for SARS-CoV-2 and other coronaviruses” (priority 2020, dated 2022).

“Also recorded” adds a separate entry of the source. Where two headings read alike, the source gives them in different places.

The conditions of series [1]: patients treated for 3 days compared to placebo.
For series [2] the following is noted: in vivo.

On to `CC[C@H](C)[C@@H]1NC(=O)[C@H](CCCNC(=N)N)NC(=O)[C@H](CC(=O)O)NC(=O)[C@H](CCSC)NC(=O)[C@H](CCCNC(=N)N)NC(=O)CNC(=O)CNC(=O)[C@H](Cc2ccccc2)NC(=O)[C@@H](NC(=O)[C@H](CO)NC(=O)[C@H](CO)NC(=O)[C@H](CCCNC(=N)N)NC(=O)[C@H](CCCNC(=N)N)NC(=O)[C@H](CC(C)C)NC(=O)[C@@H](N)CO)CSSC[C@@H](C(=O)N[C@@H](CC(N)=O)C(=O)N[C@@H](CO)C(=O)N[C@@H](Cc2ccccc2)C(=O)N[C@@H](CCCNC(=N)N)C(=O)N[C@@H](Cc2ccc(O)cc2)C(=O)O)NC(=O)CNC(=O)[C@H](CC(C)C)NC(=O)CNC(=O)[C@H](CO)NC(=O)[C@H](CCC(N)=O)NC(=O)[C@H](C)NC(=O)CNC1=O` [Carperitide], for which, in series [1], the “decrease in infarct size” value is on record as roughly 15%.
With “BNP: B-type natriuretic peptide, a 32-amino acid peptide; generic name Nesiritide”, the half-life in series [2] was 22 min; in series [2] (listed as B-type NP) it was 20 min.
Turning to “ANP: A-type natriuretic peptide, a 28-amino acid peptide degraded from pro ANP”, in series [2], the half-life entry is given as “approximately 10 minutes; also recorded: several”.

As a reminder, the half-life is the time needed for the level to fall by half in the phase considered.
